Experimental data published in the supplement of paper PMC9170038.

System: MS2 coat protein
Experiment: apparent KD of MS2 coat protein; designed switch direction (-1 OFF switch, 1 ON switch): -1; higher = weaker reporter binding
Summary of the method: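 The reported apparent KD is a per-design median over clusters, from curve fits of normalised cluster fluorescence. Protein titrations used SNAP-549-labelled MS2 coat protein, doubled from 0.7 or 1.5 nM to 3 µM, in Tris-HCl pH 7.5 buffer with KCl, MgCl2, BSA, DTT, tRNA and Tween-20, with no input, 200 uM small-molecule ligand, or an oligonucleotide input. The RNA switches were transcribed on Illumina chips by stalled E. coli RNA polymerase.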

[1] = Eterna round: R95, input ligand: microRNA oligo, concentration not stated
[2] = input ligand: microRNA oligo, concentration not stated

Sequence	apparent KD of MS2 coat protein (input ligand: FMN 200 uM) [nM]	apparent KD of MS2 coat protein (input ligand: none) [nM]	apparent KD of MS2 coat protein [1] [nM]	apparent KD of MS2 coat protein [2] [nM]	apparent KD of MS2 coat protein (Eterna round: R95, input ligand: FMN 200 uM) [nM]	apparent KD of MS2 coat protein (Eterna round: R95, input ligand: none) [nM]
GGUUGGCGAGGAUAUACAUGAGGAUCACCCAUGUGGUCCUGUGGCUGGUCUAAACUUUGUAGAAGGCGCGGGUC [salish99_ex3_r4_022] (Eterna round: R97, puzzle: Exclusion 3)	84.9	78.1	–	–	–	–
GCCGUAAGUGUGAGGAUAUACCUAUGGAUACAUAGGUAGAAGGCACAUGAGGAUCACCCAUGUUCUCAAUCGGC [Eli BMX r4m5] (Eterna round: R97, puzzle: Brourd's mod of Exclusion 4)	667	125	–	–	–	–
UGCAGACGAGGAUAUAGAUUUAAGUACAUGAGGAUCACCCAUGUACACAUGUAUUUAGAUUUAGAAGGCGUCUGCU [E5/17-A4] (Eterna round: R97, puzzle: Exclusion 5)	987	1210	–	–	–	–
UCUCGACAUGAGGAUCACCCAUGUCAGGAUAUUGUGUUUGAGGUUUUUUACCUUUUGACAAGAAGGGAUGUGUG [LRO-Excl1-22] (puzzle: Exclusion 1)	–	–	28.6	–	–	–
AAGAAAAGGAGAGGAUAUGCGAAAGGAAGUGUAGCAGAAGGCUUCGGGUAAGUCCACAUGAGGAUCACCCAUGUUAAUAAAAGA [PowerStrip EXNG 1.19] (Eterna round: R96, puzzle: Exclusion NG 1)	345	436	–	290	–	–
AUUAUAUAGCAAGGAUAUAGAAUAUUAUUUUAACAUGAGGAUCACCCAUGUAACCUUAUGUGUAGCUAGAAGGUGCAUUUAUUA [Title] (Eterna round: R96, puzzle: Exclusion NG 2)	–	–	–	64.1	–	–
CAGAAGUGAGGAUAUAUAUGUAAGUUUGAUCCAACAAGUAUACAUGAGGAUCACCCAUGUAGAAGGUGCUUCCC [Eternabot (L2) Solution 45] (Eterna round: R97, puzzle: Exclusion 2)	57.2	44.6	–	–	–	–
CCUAUGUGAGGAUAUCACUGGUCUUCUCACUGGAUGAUUAGUGAGAAGGCACAUGAGGAUCACCCAUGUCGGUG [Ex4 - 3 - 51] (Eterna round: R96, puzzle: Exclusion 4)	633	–	–	482	–	–
AUGCUCCGUGUAGGAUAUCGCCGUACUAUUCGGCGAGAAGGACAUGAGGAUCACCCAUGUAUGUUAUUAUCACGUGUGGCGCGC [Design 48] (Eterna round: R96, puzzle: Exclusion NG 1)	57	18.9	–	14.5	–	–
CGGCCGCAAGUCAGGAUAUGGACCUGCUUGGAGGACCAGAAGGGACAUGAGGAUCACCCAUGUGAUGAAAUAAA [BmEX4 A.24] (Eterna round: R97, puzzle: Brourd's mod of Exclusion 4)	37.8	28.3	–	–	–	–
CCCAGAUAGGAAGGAUAUUGUACAUGAGGAUCACCCAUGUAAUAAAUGAGGAUCACGGAUGUAGACAAGAAGGUCCGGAUAGGC [Ostracism 7 - Jieux - Exclusion NG 2] (Eterna round: R96, puzzle: Exclusion NG 2)	108	50.2	–	42.5	–	–
UAUUAACAAGUAAGAUCCCACAUGAGGAUCACCCAUGUUCGUCUUAUAGGUACUGUGACACAAAGUGUCACGGUACC [Mod of Eli's R95 Sensor 3, v1 - 87] (Eterna round: R97, puzzle: Sensor, turn-off variant 1)	36.9	44.9	–	–	–	–
GUGAAGUAAGGAUAUACAUGAGGAUCACCCAUGUGGAGGAAGGUGAUGGGAGUAGGUAGUAGAAGGUACGAGGA [JR_Exclu3_Sub064] (Eterna round: R96, puzzle: Exclusion 3)	304	207	–	134	–	–
UGAAUGUCAGGAUAUCGUGCAUACAACGAAAGUUCUAUGUGCGAGAAGGGACAUGAGGAUCACCCAUGUCUUCG [Omei Ex4 A15] (Eterna round: R97, puzzle: Exclusion 4)	50.7	18.3	–	–	–	–
AAACCUAAUGUUAGGAUAUGCUUCGGGCUUCCGCUGCAGAAGGAACAUGAGGAUCACCCAUGUCAAAUAAAAUC [JL-BMX4-4.39 ViennaUCT mod] (Eterna round: R97, puzzle: Brourd's mod of Exclusion 4)	81.8	17.6	–	–	–	–
GCAAGCUUUUUCGUGGGUGACAUGAGGAUCACCCAUGUUUGCCACGUCUUGUGGGCCCGGGCCCGCGGCCCGGGCCC [-44.9, -65.2, A 12%] (Eterna round: R97, puzzle: Sensor, turn-off variant 1)	54.6	67.6	–	–	–	–
UUUUAACAUGAGGAUCACCCAUGUGAGGAUAUCGAAAUUUAUAUUAAUAUUAUUAAAACGAGAAGGCACAUUUU [JMF 35] (puzzle: Exclusion 1)	–	–	62.9	–	–	–

Sequence	apparent KD of MS2 coat protein (input ligand: FMN 200 uM) [nM]	apparent KD of MS2 coat protein (input ligand: none) [nM]	apparent KD of MS2 coat protein [1] [nM]	apparent KD of MS2 coat protein [2] [nM]	apparent KD of MS2 coat protein (Eterna round: R95, input ligand: FMN 200 uM) [nM]	apparent KD of MS2 coat protein (Eterna round: R95, input ligand: none) [nM]
UCCUCACAUGAGGAUCACCCAUGUUAGGAUAUCUCGGUGCCCUGCAGGCAGUGGCACCAGAGAAGGAACGUGCA [Querra] (puzzle: Exclusion 1)	–	–	18.8	–	–	–
AAUUAUUUUUGAGGAUAUCGUGGUGAAACACCACGAGAAGGCGAGAUAAACAUGAGGAUCACCCAUGUGAGCCUGAUGCUUAUG [Ex NG1 #50] (Eterna round: R96, puzzle: Exclusion NG 1)	–	–	–	18.1	–	–
ACGCCGCAAGGAUAUCGUAAAGCAGACAUGAGGAUCACCCAUGUGAUAUCAUAAAGGCCACGAGAAGGUGCACAAG [Quoredin] (puzzle: Exclusion 5)	–	–	21.2	–	35.8	24.5
GUACUACGAGGAUAUAUAUAAUGGGAAGCCCAGGCCAUUGCACAUGAGGAUCACCCAUGUAGAAGGCGUGGUCA [Eternabot (L2) Solution 28] (Eterna round: R97, puzzle: Exclusion 2)	40.3	16.7	–	–	–	–
GAUCAACAUGAGGAUCACCCAUGUGAGGAUAUGAUACUAUGUACUUCGGUACAUAGUAUCAGAAGGCACUAGGA [Ex1-3: 40] (puzzle: Exclusion 1)	–	–	64	–	–	–
GUAGAGUCAGGAUAUACAAGAUCGAAAGAUCAAAGAUCCAUACAUGAGGAUCACCCAUGUAGAAGGGACUCUAC [Eli x2 4.10] (Eterna round: R97, puzzle: Exclusion 2)	73.5	22.4	–	–	–	–
CUAAAUCAUGUAGGAUAUGCAUAGCGAAGCUAUGCAGAAGGACAUGAGGAUCACCCAUGUUCUUCCGUCUGAGUACAGACGGAA [Mat - Exclusion NG 1 - Mod of JL - D31] (Eterna round: R96, puzzle: Exclusion NG 1)	288	34.1	–	30.6	–	–
AGAGUGCUGCGAGGAUAUACAUGAGGAUCACCCAUGUUUACCUGUGAGGCAAAGCCUCACAGGUAGUAGAAGGCGCAGUACUCA [Mat - Exclusion NG 2 - Mod of JL - D43] (Eterna round: R96, puzzle: Exclusion NG 2)	14.6	12.3	–	14.3	–	–
AACAGGUCAGGAUAUACAUGAGGAUCACCCAUGUAGACUUCUAGUCUACCGAGGCUGUGUAGAAGGGACCUGAA [Exclusion 3 (MOD4 of #98 Marzena11)] (Eterna round: R97, puzzle: Exclusion 3)	175	43.3	–	–	–	–
CCUAGACAUGAGGAUCACCCAUGUGAGGAUAUGAUGCGAUCGUCGAAAGACGAUAGCAUCAGAAGGCACAUAUG [Fiskers Ex 1 - 5] (Eterna round: R96, puzzle: Exclusion 1)	130	37.6	–	34.2	–	–
UAUUAACAAGCUAGGUCCCACAUGAGGAUCACCCAUGUGCUCGUCUUAUAAGGUACUGUGACGAAAGUCACGGUACC [Sensor 3, v1 - 79] (Eterna round: R96, puzzle: Sensor v3, turn-off variant 1)	30.2	38.4	–	464	–	–
UAUGAUUUAGGAUAUUGUACUGCUGACAUGAGGAUCACCCAUGUAUGCUAACUCGGCCGUCGAGAAGGAGAUUAUG [BotMod 29 - Jieux - Exclusion 5] (Eterna round: R97, puzzle: Exclusion 5)	37.9	39.4	–	–	–	–
GAGGAACAUGAGGAUCACCCAUGUGAGGAUAUGCAUAGUGAGGUAGUAGACGUUUAUUGCAGAAGGUACACUGA [JR_Exclu1_Sub079] (puzzle: Exclusion 1)	–	–	25.6	–	–	–
UUUUGCACGCUGCGGUCCUACAUGAGGAUCACCCAUGUGGUCUGGUGGCGUGGGUCGCCGGACUUGGCUCGUCUUGG [salish99_S_TOV1_R5_035] (Eterna round: R97, puzzle: Sensor, turn-off variant 1)	15.5	14.9	–	–	–	–
GUUUCACAUGAGGAUCACCCAUGUGAGGAUAUCAAUUUGUUAACCGUAGUUAAUAGAUUGAGAAGGCGCGUGAU [JRxlusion 2- Jieux - Exclusion 1] (Eterna round: R97, puzzle: Exclusion 1)	64.5	49	–	–	–	–
CAACCUCACAACCGUUAAAACAUGAGGAUCACCCAUGUGCCAUAACGGCGCAUGAUCGAGCUAGGCCCGUCCAUGCA [Razaxe] (Eterna round: R96, puzzle: Sensor v2, turn-off variant)	23.2	26.1	–	18.8	–	–
GUCAGCUCGUCAGGAUAUACAUGCGUGCUUCGGCACGUAUGAUAGAUCACAUGAGGAUCACCCAUGUAGAAGGGACGAGCUGAU [ENG2/4-B2] (Eterna round: R96, puzzle: Exclusion NG 2)	16.6	14.4	–	10	–	–
